These results are taken from patent publication US20240317840A1 (Novartis, published 2024).

Changes are numbered by the printed parent chain. Read-outs that look alike come from different tables or passages of the source.

Test [1] has as its target HBsAg of HBV genotype D, serotype ayw (Hepatitis B virus). The test is described as follows: cell-based or functional assay.
For test [2], the target named is HBsAg clinical mutation T126S (Hepatitis B virus). As to the kind of experiment: sandwich ELISA, captured mutant HBsAg from culture supernatant.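 Also: Anti-HBsAg antibodies tested for binding to mutant HBsAg secreted by stably transfected cell lines, supernatant incubated 1 h on antibody-coated plates.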 For orientation: An ELISA detects its analyte on a solid surface through an enzyme-linked reagent.
Description: (§1) The binding of anti-HBsAg antibodies to 4 well characterized vaccine and/or HBsAg clinical mutations of HBsAg (G145R, D144A, T126S, M133L) were analyzed by sandwich ELISA. […] Supernatant collected from HBsAg cell-culture derived clinical mutation stables (G145R, D144A, T126S, M133L) was allowed to bind antibody coated plates for 1 hour.
Test [3] deals with HBsAg clinical mutation M133L (Hepatitis B virus). Described as above.
Description: as §1
Test [4] deals with HBsAg clinical mutation D144A (Hepatitis B virus). Described as above.
Description: as §1
The target of test [5] is HBsAg clinical mutation G145R (Hepatitis B virus). The test is described as above.
Description: as §1
The target in test [6] is T1, HBsAg AY serotype (Hepatitis B virus).
T1 construct: also called HBsAg serotype AY
As to the kind of experiment: SPR Biacore T200, HBsAg particles immobilized, antibody as analyte, 1:1 fit. (In SPR one partner is held on a chip, and binding of the other changes the refractive index at the surface.)
Description: (§2) Binding affinity interaction (KD) of the anti-HBsAg antibodies with the two major serotypes of HBsAg, AY and AD, was determined utilizing surface plasma resonance (SPR) technology.

Test [7] deals with T2, HBsAg AD serotype (Hepatitis B virus).
T2 construct: also called HBsAg serotype AD
Described as above.
Description: as §2

For test [8], the target named is HBsAg clinical mutation T126S (Hepatitis B virus). The test is described as follows: sandwich ELISA, mutant HBsAg from cell supernatant captured on horse polyclonal anti-HBsAg, antibody titrated, absorbance 450 nm.
Test [9] addresses HBsAg clinical mutation M133L (Hepatitis B virus). The description is as above.
The target of test [10] is HBsAg of HBV genotype C (DQ087960) (Hepatitis B virus). As to the kind of experiment: sandwich ELISA, captured HBsAg from culture supernatant.
Description: (§3) The binding of anti-HBsAg antibodies to the 4 major genotypes (A-D) of HBV were analyzed by sandwich ELISA.
Test [11] has as its target HBsAg of HBV genotype B (AF 121245) (Hepatitis B virus). Described as above.
Description: as §3
Test [12] addresses T3, HBsAg of HBV genotype A (AY934772) (Hepatitis B virus).
T3 construct: captured from supernatant by horse polyclonal anti-HBsAg
The description is as above.
Description: as §3

For test [13], the target named is HBsAg clinical mutation T126S (Hepatitis B virus). The test is described as follows: sandwich ELISA, mutant HBsAg from cell supernatant captured on horse polyclonal anti-HBsAg, antibody titrated, absorbance 450 nm. This is another data set of the same source.
Test [14] has as its target HBsAg clinical mutation M133L (Hepatitis B virus). Described as above. This is another data set of the same source.
For test [15], the target named is HBsAg clinical mutation D144A (Hepatitis B virus). The description is as above.
For test [16], the target named is T1, HBsAg AY serotype. The test is described as follows: SPR epitope binning; competitor (1st, saturating Ab): CR8087.
Description: (§4) Epitope binning of anti-HBsAg antibodies with the two major serotypes of HBsAg, AY and AD, was performed utilizing surface plasmon resonance (SPR) technology. […] Each pair of antibodies was tested for blocking one another's binding to their epitope on the antigen by subsequently applying one antibody as first (saturating) followed by the other as second (competing) antibody and vice versa. Saturating antibodies were applied at 500 nM for 120s. Competing antibodies utilized the same conditions but were supplemented with the first antibody at 500 nM to maintain saturation. Binding signals were corrected by subtracting the reference cell signal. Specific binding of the competing antibody in presence of the saturating antibody was calculated by subtracting a saturating antibody plus buffer reference signal. All signals were normalized to 100 RU of immobilized ligand. The specific binding signal obtained from the application as competing antibody was expressed as percentage of the binding signal obtained from the application of the same antibody as saturating (first) antibody, the signal of which was regarded 100% binding.
Test [17] concerns the target T2, HBsAg AD serotype. The description is as above.
Description: as §4
Test [18] concerns the target T1, HBsAg AY serotype. The test is described as follows: SPR epitope binning; competitor (1st, saturating Ab): HBC34.
Description: as §4
The target in test [19] is T2, HBsAg AD serotype. Described as above.
Description: as §4
For test [20], the target named is HBsAg clinical mutation T126S (Hepatitis B virus). The test is described as follows: sandwich ELISA, mutant HBsAg from cell supernatant captured on horse polyclonal anti-HBsAg, antibody titrated, absorbance 450 nm. The source holds these as a separate data set.
The target of test [21] is HBsAg clinical mutation M133L (Hepatitis B virus). The description is as above. This is another data set of the same source.
In test [22] the target is HBsAg clinical mutation T126S (Hepatitis B virus). Described as above. This is another data set of the same source.
Test [23] addresses HBsAg clinical mutation M133L (Hepatitis B virus). Described as above. This is another data set of the same source.
The target of test [24] is HBsAg clinical mutation D144A (Hepatitis B virus). Described as above. The source holds these as a separate data set.
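For Kd in this document: Anti-HBsAg antibodies assessed for binding against both major HBsAg serotypes, AY and AD.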

B1: NOV3839 (antibody, human IgG1, kappa, V domains shown)
VH: QVQLQESGGRLVRPGGSLRLSCAASGFIFTDYYMTWIRQAPGKGPEWIAFITSGGETTYYADSVKGRFTISRDNAKKSLFLQMYSLRADDTAVYYCVRAHFDIYQYDTRGDFTYYFDNWGLGTLVSVSS
VL: EIVMTQSPATLSVSPGERVTLSCRASQSVSSSLAWYQQKPGRAPRLLIYGASTRATGVPARFSGGGSGTDFTLTISSLQSEDFAVYYCHQYINWPPGDTFGQGTRLDIKR
notes: Full human IgG1 (kappa) expressed in CHO cells
As usually defined, the IC50 is the point on the concentration scale where inhibition reaches its midpoint. Low values mean greater potency in that assay, high ones weaker potency in that assay. The Kd is the concentration at which binding is half-saturated. Read a high Kd as a looser complex. The term EC50 (read off the curve) denotes the concentration needed to bring the measured effect to its halfway point. On to B1, for which, in [1], the “Virus neutralization EC50” value is 0.09 nM. The IC50 stood at 0.088 nM in test [2]; 0.085 nM in test [3]; 3.6 nM in test [4]; 8.6 nM in test [5]; 0.37 nM in test [10]; 0.17 nM in [11]. Also, half-maximal inhibition in test [12] (IC50) required 1.6 nM. In addition, the figures for the Kd in test [6] and in [7] were 2.4 nM and 0.59 nM, respectively. Also, the “EC50 (read off the curve)” value in test [8] and in test [9] was about 0.1 nM in each case.

B2: NOV3840 (antibody, human IgG1, lambda, V domains shown)
VH: EVQLLESGGGLVQPGGSRRLSCAASGFTFSYYGMNWVRQAPGKGLEWVSGITNSGSITYYADSVKGRFSISRDNSKNTLFLQMNSLRAEDTAVYYCAKVGVRSSSGMWDLDYWGQGTLVTVSS
VL: SYVLTQPPSVSVAPGQTARLSCGGNNIGSKSLQWYQQKPGQAPVLVVNDDSDRPSGIPERFSGSNSGNTATLTISRVEAGDEADYYCQVWDTSSDHVVFGGGTKLTVLG
notes: Full human IgG1 (lambda) expressed in CHO cells
For B2, in test [1], the “Virus neutralization EC50” value was 0.056 nM. For the same molecule, the IC50 was 0.01 nM in [2]; 0.013 nM in test [3]; 0.012 nM in [4]; 0.016 nM in test [10]; 0.022 nM in test [11]; 0.023 nM in test [12]. In addition, the Kd is 0.38 nM in test [6] and 0.45 nM in [7]. The “EC50 (read off the curve)” value in [13], in test [14] and in test [15] was about 0.02 nM each time.

B3: NOV3841 (antibody, human IgG1, lambda, V domains shown)
VH: B2 VH with N53Q, S63T
VL: B2 VL with D50E
notes: as for B2
As to B3, the “Virus neutralization EC50” value in test [1] was 0.74 nM. In addition, the 50% inhibitory concentration (IC50) in test [2] is 0.079 nM; in [3] it was 0.044 nM; in test [4] it was 7.8 nM; in [5], over 67 nM; in test [10], 2 nM; in test [11], 0.35 nM. Moreover, inhibition in test [12] was half-maximal at 1.1 nM (IC50). The “binding of second antibody” value in [16] was 129 % of its binding as first antibody; in [17], 282 % of its binding as first antibody; in test [18], 107 % of its binding as first antibody; in test [19], 145 % of its binding as first antibody. Further, the Kd in test [6] amounted to 0.61 nM; in test [7] it was 0.91 nM. Moreover, the entries for the “EC50 (read off the curve)” value in [20] and in test [21] were about 0.07 nM and about 0.06 nM, respectively.

B4: NOV3842 (antibody, human IgG1, lambda, V domains shown)
VH: B2 VH with S54V, S63T
VL: B2 VL with D50E
notes: as for B2
Turning to B4, the “Virus neutralization EC50” value in test [1] stood at 0.23 nM. The concentration for half-maximal inhibition (IC50) in test [2] was 0.042 nM; in test [3], 0.084 nM; in test [4], 0.12 nM; in [5] it was over 67 nM; in [10] it was 0.75 nM; in test [11], 0.28 nM. In addition, in [12], the IC50 was 0.46 nM. In addition, the “EC50 (read off the curve)” value in [22] is about 0.05 nM; in test [23], about 0.05 nM; in test [24], about 0.1 nM. Further, the “binding of second antibody” value in [16] was 118 % of its binding as first antibody; in test [17] it was 216 % of its binding as first antibody; in test [18] it was 103 % of its binding as first antibody; in test [19], 115 % of its binding as first antibody. Moreover, the Kd in [6] worked out at 0.15 nM; in test [7], 0.13 nM.
